Legend:
[1] = target: HLA-DR as expressed by cancer cell lines (human); experiment: flow cytometry, permeabilized (cytoplasmic), BxPC-3 cells + IFNγ
[2] = target: HLA-DR as expressed by cancer cell lines (human); experiment: flow cytometry, surface, RL cells
[3] = target: HLA-DR as expressed by cancer cell lines (human); experiment: flow cytometry, permeabilized (cytoplasmic), U118 cells + IFNγ
[4] = target: HLA-DR as expressed by cancer cell lines (human); experiment: flow cytometry, surface, LS174T cells
[5] = target: HLA-DR as expressed by cancer cell lines (human); experiment: flow cytometry, surface, FSCCL cells
[6] = target: HLA-DR as expressed by cancer cell lines (human); experiment: flow cytometry, permeabilized (cytoplasmic), FSCCL cells
[7] = target: HLA-DR as expressed by cancer cell lines (human); experiment: flow cytometry, surface, KMS11 cells + IFNγ
[8] = target: HLA-DR as expressed by cancer cell lines (human); experiment: flow cytometry, surface, CAG cells
[9] = target: HLA-DR as expressed by cancer cell lines (human); experiment: flow cytometry, permeabilized (cytoplasmic), Panc-1 cells + IFNγ
[10] = target: HLA-DR as expressed by cancer cell lines (human); experiment: flow cytometry, surface, BxPC-3 cells + IFNγ
[11] = target: HLA-DR as expressed by cancer cell lines (human); experiment: flow cytometry, permeabilized (cytoplasmic), BxPC-3 cells
[12] = target: HLA-DR as expressed by cancer cell lines (human); experiment: flow cytometry, surface, Aspc-1 cells
[13] = target: HLA-DR as expressed by cancer cell lines (human); experiment: flow cytometry, surface, Lovo cells
[14] = target: HLA-DR as expressed by cancer cell lines (human); experiment: flow cytometry, surface, RL cells + IFNγ
[15] = target: HLA-DR as expressed by cancer cell lines (human); experiment: flow cytometry, permeabilized (cytoplasmic), HT29 cells + IFNγ
[16] = target: HLA-DR as expressed by cancer cell lines (human); experiment: flow cytometry, surface, U118 cells
[17] = target: HLA-DR as expressed by cancer cell lines (human); experiment: flow cytometry, permeabilized (cytoplasmic), Lovo cells + IFNγ
[18] = target: HLA-DR as expressed by cancer cell lines (human); experiment: flow cytometry, surface, Panc-1 cells + IFNγ
[19] = target: HLA-DR as expressed by cancer cell lines (human); experiment: flow cytometry, surface, FSCCL cells + IFNγ
[20] = target: HLA-DR as expressed by cancer cell lines (human); experiment: flow cytometry, permeabilized (cytoplasmic), LS174T cells + IFNγ
[21] = target: HLA-DR as expressed by cancer cell lines (human); experiment: flow cytometry, surface, HT29 cells
[22] = target: HLA-DR as expressed by cancer cell lines (human); experiment: flow cytometry, surface, LS174T cells + IFNγ
[23] = target: HLA-DR as expressed by cancer cell lines (human); experiment: flow cytometry, surface, Moser cells + IFNγ
[24] = target: HLA-DR as expressed by cancer cell lines (human); experiment: flow cytometry, surface, U118 cells + IFNγ
[25] = target: HLA-DR as expressed by cancer cell lines (human); experiment: flow cytometry, surface, Panc-1 cells
[26] = target: HLA-DR as expressed by cancer cell lines (human); experiment: flow cytometry, permeabilized (cytoplasmic), Aspc-1 cells + IFNγ
[27] = target: HLA-DR as expressed by cancer cell lines (human); experiment: flow cytometry, surface, Capan-1 cells
[28] = target: HLA-DR as expressed by cancer cell lines (human); experiment: flow cytometry, surface, CAG cells + IFNγ
[29] = target: HLA-DR as expressed by cancer cell lines (human); experiment: flow cytometry, surface, Capan cells + IFNγ
[30] = target: HLA-DR as expressed by cancer cell lines (human); experiment: flow cytometry, surface, Moser cells
[31] = target: HLA-DR as expressed by cancer cell lines (human); experiment: flow cytometry, permeabilized (cytoplasmic), RL cells
[32] = target: HLA-DR as expressed by cancer cell lines (human); experiment: flow cytometry, permeabilized (cytoplasmic), U118 cells
[33] = target: HLA-DR as expressed by cancer cell lines (human); experiment: flow cytometry, permeabilized (cytoplasmic), KMS11 cells
[34] = target: HLA-DR as expressed by cancer cell lines (human); experiment: flow cytometry, surface, Aspc-1 cells + IFNγ
[35] = target: HLA-DR as expressed by cancer cell lines (human); experiment: flow cytometry, surface, KMS11 cells
[36] = target: HLA-DR as expressed by cancer cell lines (human); experiment: flow cytometry, surface, U87 cells + IFNγ
[37] = target: HLA-DR as expressed by cancer cell lines (human); experiment: flow cytometry, permeabilized (cytoplasmic), LS174T cells
[38] = target: HLA-DR as expressed by cancer cell lines (human); experiment: flow cytometry, permeabilized (cytoplasmic), Lovo cells
[39] = target: HLA-DR as expressed by cancer cell lines (human); experiment: flow cytometry, surface, HT29 cells + IFNγ
[40] = target: HLA-DR as expressed by cancer cell lines (human); experiment: flow cytometry, surface, TU118 cells + IFNγ
[41] = target: HLA-DR as expressed by cancer cell lines (human); experiment: flow cytometry, permeabilized (cytoplasmic), Moser cells + IFNγ
[42] = target: HLA-DR as expressed by cancer cell lines (human); experiment: cell-based or functional assay
[43] = target: HLA-DR as expressed by cancer cell lines (human); experiment: flow cytometry, permeabilized (cytoplasmic), TU118 cells + IFNγ
[44] = target: HLA-DR as expressed by cancer cell lines (human); experiment: flow cytometry, permeabilized (cytoplasmic), CAG cells + IFNγ
[45] = target: HLA-DR as expressed by cancer cell lines (human); experiment: flow cytometry, permeabilized (cytoplasmic), HT29 cells
[46] = target: HLA-DR as expressed by cancer cell lines (human); experiment: flow cytometry, surface, BxPC-3 cells
[47] = target: HLA-DR as expressed by cancer cell lines (human); experiment: flow cytometry, permeabilized (cytoplasmic), RL cells + IFNγ
[48] = target: HLA-DR as expressed by cancer cell lines (human); experiment: flow cytometry, permeabilized (cytoplasmic), U87 cells
[49] = target: HLA-DR as expressed by cancer cell lines (human); experiment: flow cytometry, permeabilized (cytoplasmic), U87 cells + IFNγ
[50] = target: HLA-DR as expressed by cancer cell lines (human); experiment: flow cytometry, surface, TU118 cells
[51] = target: HLA-DR as expressed by cancer cell lines (human); experiment: flow cytometry, permeabilized (cytoplasmic), FSCCL cells + IFNγ
[52] = target: HLA-DR as expressed by cancer cell lines (human); experiment: flow cytometry, permeabilized (cytoplasmic), Panc-1 cells
[53] = target: HLA-DR as expressed by cancer cell lines (human); experiment: flow cytometry, permeabilized (cytoplasmic), Moser cells
[54] = target: HLA-DR as expressed by cancer cell lines (human); experiment: flow cytometry, permeabilized (cytoplasmic), CAG cells
[55] = target: HLA-DR as expressed by cancer cell lines (human); experiment: flow cytometry, permeabilized (cytoplasmic), TU118 cells
[56] = target: HLA-DR as expressed by cancer cell lines (human); experiment: flow cytometry, surface, Lovo cells + IFNγ
[57] = target: HLA-DR as expressed by cancer cell lines (human); experiment: flow cytometry, permeabilized (cytoplasmic), Capan-1 cells
[58] = target: HLA-DR as expressed by cancer cell lines (human); experiment: flow cytometry, permeabilized (cytoplasmic), KMS11 cells + IFNγ
[59] = target: HLA-DR as expressed by cancer cell lines (human); experiment: flow cytometry, surface, U87 cells
[60] = target: HLA-DR as expressed by cancer cell lines (human); experiment: flow cytometry, permeabilized (cytoplasmic), Aspc-1 cells
[61] = target: HLA-DR as expressed by cancer cell lines (human); experiment: flow cytometry, permeabilized (cytoplasmic), Capan cells + IFNγ

B1: hL243γ4P (humanized anti-HLA-DR antibody) (antibody, from a related filing, V domains shown)
VH: QVQLQQSGSELKKPGASVKVSCKASGFTFTNYGMNWVKQAPGQGLKWMGWINTYTREPTYADDFKGRFAFSLDTSVSTAYLQISSLKADDTAVYFCARDITAVVPTGFDYWGQGSLVTVSS
VL: DIQLTQSPSSLSASVGDRVTITCRASENIYSNLAWYRQKPGKAPKLLVFAASNLADGVPSRFSGSGSGTDYTFTISSLQPEDIATYYCQHFWTTPWAFGGGTKLQIKR
With B1 the fluorescence intensity (flow cytometry) [1] was 130, the fluorescence intensity (flow cytometry) [2] was 750 and the fluorescence intensity (flow cytometry) [3] was 352. The fluorescence intensity (flow cytometry) [4] was 5.3, the fluorescence intensity (flow cytometry) [5] was 1090 and the fluorescence intensity (flow cytometry) [6] was 1470. For the same binder, the fluorescence intensity (flow cytometry) [7] was 665, the fluorescence intensity (flow cytometry) [8] was 1930 and the fluorescence intensity (flow cytometry) [9] was 64.1. It also gave a fluorescence intensity (flow cytometry) [10] of 43.8, a fluorescence intensity (flow cytometry) [11] of 14.2 and a fluorescence intensity (flow cytometry) [12] of 3.2. It also gave a fluorescence intensity (flow cytometry) [13] of 7.3, a fluorescence intensity (flow cytometry) [14] of 862 and a fluorescence intensity (flow cytometry) [15] of 638. For the same binder, the fluorescence intensity (flow cytometry) [16] was 6.1, the fluorescence intensity (flow cytometry) [17] was 989 and the fluorescence intensity (flow cytometry) [18] was 4.7. The fluorescence intensity (flow cytometry) [19] was 1610, the fluorescence intensity (flow cytometry) [20] was 42.3 and the fluorescence intensity (flow cytometry) [21] was 3.3. It also gave a fluorescence intensity (flow cytometry) [22] of 4.7, a fluorescence intensity (flow cytometry) [23] of 8.5 and a fluorescence intensity (flow cytometry) [24] of 197. The fluorescence intensity (flow cytometry) [25] was 4.3, the fluorescence intensity (flow cytometry) [26] was 73.6 and the fluorescence intensity (flow cytometry) [27] was 5.5. It also gave a fluorescence intensity (flow cytometry) [28] of 1810, a fluorescence intensity (flow cytometry) [29] of 66.2 and a fluorescence intensity (flow cytometry) [30] of 4. The fluorescence intensity (flow cytometry) [31] was 1060, the fluorescence intensity (flow cytometry) [32] was 24.6 and the fluorescence intensity (flow cytometry) [33] was 879. It also gave a fluorescence intensity (flow cytometry) [34] of 15.2, a fluorescence intensity (flow cytometry) [35] of 677 and a fluorescence intensity (flow cytometry) [36] of 172. For the same binder, the fluorescence intensity (flow cytometry) [37] was 23.4, the fluorescence intensity (flow cytometry) [38] was 32.5 and the fluorescence intensity (flow cytometry) [39] was 298. It also gave a fluorescence intensity (flow cytometry) [40] of 93.5, a fluorescence intensity (flow cytometry) [41] of 40.5 and an increased killing in vitro after IFN-γ exposure, WSU-FSCCL NHL cells [42] of 58%. For the same binder, the fluorescence intensity (flow cytometry) [43] was 215, the fluorescence intensity (flow cytometry) [44] was 2420 and the fluorescence intensity (flow cytometry) [45] was 9.1. It also gave a fluorescence intensity (flow cytometry) [46] of 2.3, a fluorescence intensity (flow cytometry) [47] of 1180 and a fluorescence intensity (flow cytometry) [48] of 102. It also gave a fluorescence intensity (flow cytometry) [49] of 429, a fluorescence intensity (flow cytometry) [50] of 5.08 and a fluorescence intensity (flow cytometry) [51] of 2520. For the same binder, the fluorescence intensity (flow cytometry) [52] was 22.7, the fluorescence intensity (flow cytometry) [53] was 18.2 and the fluorescence intensity (flow cytometry) [54] was 2320. The fluorescence intensity (flow cytometry) [55] was 23.6, the fluorescence intensity (flow cytometry) [56] was 276 and the fluorescence intensity (flow cytometry) [57] was 11.6. The fluorescence intensity (flow cytometry) [58] was 927, the fluorescence intensity (flow cytometry) [59] was 41.9 and the fluorescence intensity (flow cytometry) [60] was 11. The fluorescence intensity (flow cytometry) [61] was 253.

Reference: patent US20110171126A1
